Assay results as given in the Human Domainome abundance scans (Beltran et al. 2025).
± gives the uncertainty stated by the source.

assay: abundance fitness (aPCA) (normalised: wild type 0, dead -1); higher = more abundant; growth selection in yeast, the domain comes from the species named; details: Homo sapiens

| Substance | abundance fitness |
| --- | --- |
| E3 ubiquitin-protein ligase NEDD4-like Y211C, Q96PU5 | -0.696 ± 0.08 |
| E3 ubiquitin-protein ligase NEDD4-like H222T, Q96PU5 | 0.081 ± 0.076 |
| E3 ubiquitin-protein ligase NEDD4-like N216D, Q96PU5 | -0.142 ± 0.085 |
| E3 ubiquitin-protein ligase NEDD4-like Y210W, Q96PU5 | -0.287 ± 0.08 |
| E3 ubiquitin-protein ligase NEDD4-like L206D, Q96PU5 | 0.015 ± 0.095 |
| E3 ubiquitin-protein ligase NEDD4-like T219L, Q96PU5 | -0.623 ± 0.076 |
| E3 ubiquitin-protein ligase NEDD4-like T219A, Q96PU5 | -0.28 ± 0.057 |
| E3 ubiquitin-protein ligase NEDD4-like P191M, Q96PU5 | -0.378 ± 0.057 |
| E3 ubiquitin-protein ligase NEDD4-like N213A, Q96PU5 | -0.382 ± 0.071 |
| E3 ubiquitin-protein ligase NEDD4-like T219E, Q96PU5 | -0.145 ± 0.068 |
| E3 ubiquitin-protein ligase NEDD4-like H214K, Q96PU5 | 0.032 ± 0.081 |
| E3 ubiquitin-protein ligase NEDD4-like P224H, Q96PU5 | -0.694 ± 0.17 |
| E3 ubiquitin-protein ligase NEDD4-like E189V, Q96PU5 | -0.267 ± 0.069 |
| E3 ubiquitin-protein ligase NEDD4-like W199Q, Q96PU5 | -0.586 ± 0.098 |
| E3 ubiquitin-protein ligase NEDD4-like M227R, Q96PU5 | 0.001 ± 0.054 |
| E3 ubiquitin-protein ligase NEDD4-like N205D, Q96PU5 | -0.085 ± 0.07 |
| E3 ubiquitin-protein ligase NEDD4-like P196W, Q96PU5 | -0.416 ± 0.057 |
| E3 ubiquitin-protein ligase NEDD4-like Y211M, Q96PU5 | -0.779 ± 0.11 |
| E3 ubiquitin-protein ligase NEDD4-like H214R, Q96PU5 | -0.005 ± 0.068 |
| E3 ubiquitin-protein ligase NEDD4-like L206S, Q96PU5 | 0.065 ± 0.054 |
| E3 ubiquitin-protein ligase NEDD4-like G198S, Q96PU5 | -0.139 ± 0.057 |
| E3 ubiquitin-protein ligase NEDD4-like M227Q, Q96PU5 | -0.068 ± 0.1 |
| E3 ubiquitin-protein ligase NEDD4-like Q220T, Q96PU5 | 0.163 ± 0.077 |
| E3 ubiquitin-protein ligase NEDD4-like W221N, Q96PU5 | -0.402 ± 0.11 |

| Substance | abundance fitness |
| --- | --- |
| E3 ubiquitin-protein ligase NEDD4-like E200R, Q96PU5 | -0.31 ± 0.065 |
| E3 ubiquitin-protein ligase NEDD4-like P192E, Q96PU5 | -0.369 ± 0.079 |
| E3 ubiquitin-protein ligase NEDD4-like E200K, Q96PU5 | -0.161 ± 0.062 |
| E3 ubiquitin-protein ligase NEDD4-like N205Y, Q96PU5 | 0.049 ± 0.094 |
| E3 ubiquitin-protein ligase NEDD4-like K202R, Q96PU5 | -0.216 ± 0.062 |
| E3 ubiquitin-protein ligase NEDD4-like E201Y, Q96PU5 | -0.278 ± 0.056 |
| E3 ubiquitin-protein ligase NEDD4-like E232K, Q96PU5 | -1.37 ± 0.43 |
| E3 ubiquitin-protein ligase NEDD4-like R217H, Q96PU5 | -1 ± 0.062 |
| E3 ubiquitin-protein ligase NEDD4-like S231E, Q96PU5 | 0.134 ± 0.089 |
| E3 ubiquitin-protein ligase NEDD4-like M227H, Q96PU5 | 0.092 ± 0.077 |
| E3 ubiquitin-protein ligase NEDD4-like L190H, Q96PU5 | -0.141 ± 0.11 |
| E3 ubiquitin-protein ligase NEDD4-like V212K, Q96PU5 | -0.974 ± 0.18 |
| E3 ubiquitin-protein ligase NEDD4-like R208G, Q96PU5 | -0.191 ± 0.06 |
| E3 ubiquitin-protein ligase NEDD4-like S231N, Q96PU5 | -0.385 ± 0.12 |
| E3 ubiquitin-protein ligase NEDD4-like P192G, Q96PU5 | -0.064 ± 0.06 |
| E3 ubiquitin-protein ligase NEDD4-like P194G, Q96PU5 | -0.05 ± 0.059 |
| E3 ubiquitin-protein ligase NEDD4-like V203E, Q96PU5 | -0.033 ± 0.068 |
| E3 ubiquitin-protein ligase NEDD4-like M227S, Q96PU5 | 0.055 ± 0.063 |
| E3 ubiquitin-protein ligase NEDD4-like T219K, Q96PU5 | -0.157 ± 0.099 |
| E3 ubiquitin-protein ligase NEDD4-like L226E, Q96PU5 | -0.203 ± 0.092 |
| E3 ubiquitin-protein ligase NEDD4-like R217Y, Q96PU5 | -0.179 ± 0.084 |
| E3 ubiquitin-protein ligase NEDD4-like T219H, Q96PU5 | -0.232 ± 0.099 |
| E3 ubiquitin-protein ligase NEDD4-like H186E, Q96PU5 | -1.69 ± 0.14 |
| E3 ubiquitin-protein ligase NEDD4-like P224K, Q96PU5 | -0.552 ± 0.089 |

| Substance | abundance fitness |
| --- | --- |
| E3 ubiquitin-protein ligase NEDD4-like P193D, Q96PU5 | -0.131 ± 0.076 |
| E3 ubiquitin-protein ligase NEDD4-like Y211N, Q96PU5 | -0.704 ± 0.16 |
| E3 ubiquitin-protein ligase NEDD4-like R223T, Q96PU5 | -0.393 ± 0.094 |
| E3 ubiquitin-protein ligase NEDD4-like P191A, Q96PU5 | -0.044 ± 0.07 |
| E3 ubiquitin-protein ligase NEDD4-like S184R, Q96PU5 | -1.23 ± 0.22 |
| E3 ubiquitin-protein ligase NEDD4-like N205F, Q96PU5 | -0.544 ± 0.11 |
| E3 ubiquitin-protein ligase NEDD4-like E201A, Q96PU5 | -0.1 ± 0.066 |
| E3 ubiquitin-protein ligase NEDD4-like H186Y, Q96PU5 | -0.095 ± 0.12 |
| E3 ubiquitin-protein ligase NEDD4-like T219C, Q96PU5 | -0.137 ± 0.09 |
| E3 ubiquitin-protein ligase NEDD4-like L190Y, Q96PU5 | -0.094 ± 0.088 |
| E3 ubiquitin-protein ligase NEDD4-like L226V, Q96PU5 | -0.11 ± 0.063 |
| E3 ubiquitin-protein ligase NEDD4-like V212Y, Q96PU5 | -0.003 ± 0.15 |
| E3 ubiquitin-protein ligase NEDD4-like R217C, Q96PU5 | -0.105 ± 0.081 |
| E3 ubiquitin-protein ligase NEDD4-like Y210C, Q96PU5 | -0.386 ± 0.1 |
| E3 ubiquitin-protein ligase NEDD4-like P196F, Q96PU5 | -0.567 ± 0.098 |
| E3 ubiquitin-protein ligase NEDD4-like P193K, Q96PU5 | -0.033 ± 0.069 |
| E3 ubiquitin-protein ligase NEDD4-like N215P, Q96PU5 | -0.171 ± 0.074 |
| E3 ubiquitin-protein ligase NEDD4-like E232I, Q96PU5 | -0.5 ± 0.31 |
| E3 ubiquitin-protein ligase NEDD4-like D204A, Q96PU5 | -0.392 ± 0.068 |
| E3 ubiquitin-protein ligase NEDD4-like D228S, Q96PU5 | -0.053 ± 0.059 |
| E3 ubiquitin-protein ligase NEDD4-like P192M, Q96PU5 | 0.094 ± 0.082 |
| E3 ubiquitin-protein ligase NEDD4-like S231P, Q96PU5 | -0.008 ± 0.08 |
| E3 ubiquitin-protein ligase NEDD4-like P193N, Q96PU5 | -0.25 ± 0.11 |
| E3 ubiquitin-protein ligase NEDD4-like Q220M, Q96PU5 | -0.362 ± 0.093 |

| Substance | abundance fitness |
| --- | --- |
| E3 ubiquitin-protein ligase NEDD4-like P191R, Q96PU5 | -0.167 ± 0.061 |
| E3 ubiquitin-protein ligase NEDD4-like R217L, Q96PU5 | -0.208 ± 0.06 |
| E3 ubiquitin-protein ligase NEDD4-like P197C, Q96PU5 | -0.249 ± 0.095 |
| E3 ubiquitin-protein ligase NEDD4-like P196K, Q96PU5 | -0.402 ± 0.11 |
| E3 ubiquitin-protein ligase NEDD4-like P193F, Q96PU5 | -0.339 ± 0.11 |
| E3 ubiquitin-protein ligase NEDD4-like T218Y, Q96PU5 | 0.211 ± 0.1 |
| E3 ubiquitin-protein ligase NEDD4-like G207T, Q96PU5 | -0.419 ± 0.055 |
| E3 ubiquitin-protein ligase NEDD4-like Q220V, Q96PU5 | -0.242 ± 0.06 |
| E3 ubiquitin-protein ligase NEDD4-like G198E, Q96PU5 | -0.691 ± 0.092 |
| E3 ubiquitin-protein ligase NEDD4-like R208C, Q96PU5 | 0.06 ± 0.062 |
| E3 ubiquitin-protein ligase NEDD4-like N205E, Q96PU5 | -0.105 ± 0.05 |
| E3 ubiquitin-protein ligase NEDD4-like T209H, Q96PU5 | -0.32 ± 0.11 |
| E3 ubiquitin-protein ligase NEDD4-like E189K, Q96PU5 | -0.026 ± 0.082 |
| E3 ubiquitin-protein ligase NEDD4-like E200W, Q96PU5 | -0.603 ± 0.069 |
| E3 ubiquitin-protein ligase NEDD4-like L206G, Q96PU5 | 0.059 ± 0.059 |
| E3 ubiquitin-protein ligase NEDD4-like S184N, Q96PU5 | -0.554 ± 0.4 |
| E3 ubiquitin-protein ligase NEDD4-like P191Y, Q96PU5 | -0.432 ± 0.14 |
| E3 ubiquitin-protein ligase NEDD4-like R223N, Q96PU5 | -0.082 ± 0.088 |
| E3 ubiquitin-protein ligase NEDD4-like E232A, Q96PU5 | -0.173 ± 0.11 |
| E3 ubiquitin-protein ligase NEDD4-like L190A, Q96PU5 | -0.186 ± 0.075 |
| E3 ubiquitin-protein ligase NEDD4-like R217G, Q96PU5 | -0.005 ± 0.054 |
| E3 ubiquitin-protein ligase NEDD4-like Q187S, Q96PU5 | -0.242 ± 0.073 |
| E3 ubiquitin-protein ligase NEDD4-like L206M, Q96PU5 | -0.083 ± 0.096 |
